Measured values reported in the supplement of paper PMC9112550, “Optimization of the antimicrobial peptide Bac7 by deep mutational scanning” (BMC Biology, 2022).

These sequences were tested on Escherichia coli TOP10 (assay: shrunken log2 fold change of peptide-encoding DNA abundance (4.5 h post-induction vs induction); higher = less antimicrobial activity (less host growth inhibition)). Details: time post-induction: 4.5 h; library: site-saturation at positions 5, 18, 19, 20.
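Further: peptides expressed intracellularly from a pBAD plasmid library in pooled LB shake-flask culture, induced with 0.3% L-arabinose, DNA abundance read by NGS, three biological replicates, DESeq2 with apeglm shrinkage.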

| Sequence | shrunken log2 fold change |
| --- | --- |
| RRIRGRPPRLPRPRPRPRDYPRP | 0.258 |
| RRIRRRPPRLPRPRPRPGTQPRP | 0.0536 |
| RRIRFRPPRLPRPRPRPTHYPRP | -0.0275 |
| RRIRSRPPRLPRPRPRPEICPRP | 0.0531 |
| RRIRGRPPRLPRPRPRPRALPRP | 0.852 |
| RRIRMRPPRLPRPRPRPMAFPRP | 0.102 |
| RRIRVRPPRLPRPRPRPHDPPRP | 0.0847 |
| RRIRGRPPRLPRPRPRPCVNPRP | 0.0252 |
| RRIRWRPPRLPRPRPRPDDSPRP | -0.183 |
| RRIRNRPPRLPRPRPRPFKMPRP | -0.258 |
| RRIRERPPRLPRPRPRPSVIPRP | -0.259 |
| RRIRSRPPRLPRPRPRPCQLPRP | -0.163 |
| RRIRWRPPRLPRPRPRPTWNPRP | 0.306 |
| RRIRPRPPRLPRPRPRPEADPRP | 0.0865 |
| RRIRARPPRLPRPRPRPWFNPRP | -0.142 |
| RRIRLRPPRLPRPRPRPIVNPRP | -0.803 |
| RRIRMRPPRLPRPRPRPINHPRP | -0.173 |
| RRIRIRPPRLPRPRPRPPAHPRP | 0.139 |
| RRIRLRPPRLPRPRPRPTENPRP | -0.171 |
| RRIRDRPPRLPRPRPRPNRAPRP | 0.563 |
| RRIRMRPPRLPRPRPRPEACPRP | 3.9 |
| RRIRARPPRLPRPRPRPKHEPRP | 0.529 |
| RRIRNRPPRLPRPRPRPQQAPRP | -0.356 |
| RRIRDRPPRLPRPRPRPGRNPRP | -0.495 |
| RRIRQRPPRLPRPRPRPQNEPRP | 0.121 |

| Sequence | shrunken log2 fold change |
| --- | --- |
| RRIRYRPPRLPRPRPRPATNPRP | -0.387 |
| RRIRERPPRLPRPRPRPQIPPRP | -0.237 |
| RRIRYRPPRLPRPRPRPWYLPRP | -0.268 |
| RRIRDRPPRLPRPRPRPFAGPRP | 0.0426 |
| RRIRERPPRLPRPRPRPTFCPRP | -0.0701 |
| RRIRLRPPRLPRPRPRPKHVPRP | -0.0799 |
| RRIRMRPPRLPRPRPRPDFEPRP | 0.589 |
| RRIRGRPPRLPRPRPRPRGVPRP | 0.89 |
| RRIRMRPPRLPRPRPRPRHSPRP | 0.0596 |
| RRIRERPPRLPRPRPRPKAAPRP | 0.0382 |
| RRIRGRPPRLPRPRPRPVTRPRP | 0.383 |
| RRIRNRPPRLPRPRPRPVNNPRP | -0.647 |
| RRIRKRPPRLPRPRPRPMQMPRP | -0.00145 |
| RRIRKRPPRLPRPRPRPWKVPRP | -0.000777 |
| RRIRGRPPRLPRPRPRPVDTPRP | 0.678 |
| RRIRFRPPRLPRPRPRPDWVPRP | 0.0788 |
| RRIRTRPPRLPRPRPRPNYRPRP | -0.0168 |
| RRIRCRPPRLPRPRPRPQMNPRP | -0.416 |
| RRIRLRPPRLPRPRPRPHPQPRP | 0.0301 |
| RRIRMRPPRLPRPRPRPSNFPRP | -0.192 |
| RRIRRRPPRLPRPRPRPCCVPRP | 0.415 |
| RRIRLRPPRLPRPRPRPNTMPRP | -0.501 |
| RRIRMRPPRLPRPRPRPCWGPRP | -0.078 |
| RRIRRRPPRLPRPRPRPIDYPRP | -0.029 |
| RRIRRRPPRLPRPRPRPFAKPRP | 0.219 |

| Sequence | shrunken log2 fold change |
| --- | --- |
| RRIRRRPPRLPRPRPRPWAFPRP | 0.00699 |
| RRIRGRPPRLPRPRPRPQTKPRP | 0.8 |
| RRIRHRPPRLPRPRPRPYGQPRP | -0.00191 |
| RRIRFRPPRLPRPRPRPNLWPRP | 0.031 |
| RRIRPRPPRLPRPRPRPKYCPRP | -0.91 |
| RRIRARPPRLPRPRPRPSSIPRP | 0.101 |
| RRIRDRPPRLPRPRPRPEDGPRP | 0.316 |
| RRIRYRPPRLPRPRPRPTFMPRP | -0.0549 |
| RRIRNRPPRLPRPRPRPRTSPRP | -0.0838 |
| RRIRLRPPRLPRPRPRPQGGPRP | 0.0226 |
| RRIRTRPPRLPRPRPRPPPEPRP | 0.643 |
| RRIRPRPPRLPRPRPRPTYQPRP | -0.0514 |
| RRIRHRPPRLPRPRPRPRSRPRP | -0.132 |
| RRIRWRPPRLPRPRPRPIYDPRP | -0.227 |
| RRIRRRPPRLPRPRPRPQKGPRP | -0.138 |
| RRIRGRPPRLPRPRPRPVPGPRP | 0.742 |
| RRIRPRPPRLPRPRPRPFTAPRP | -0.332 |
| RRIRQRPPRLPRPRPRPANGPRP | 0.184 |
| RRIRERPPRLPRPRPRPLRMPRP | 0.167 |
| RRIRHRPPRLPRPRPRPRHNPRP | -0.4 |
| RRIRYRPPRLPRPRPRPVMPPRP | 0.047 |
| RRIRIRPPRLPRPRPRPRPFPRP | -0.253 |
| RRIRCRPPRLPRPRPRPYSVPRP | -0.0508 |
| RRIRCRPPRLPRPRPRPMQMPRP | 0.0279 |
| RRIRFRPPRLPRPRPRPMVGPRP | -0.225 |

| Sequence | shrunken log2 fold change |
| --- | --- |
| RRIRARPPRLPRPRPRPPYWPRP | 0.376 |
| RRIRYRPPRLPRPRPRPILNPRP | -0.768 |
| RRIRYRPPRLPRPRPRPDFDPRP | -0.0161 |
| RRIRERPPRLPRPRPRPPRGPRP | 0.519 |
| RRIRNRPPRLPRPRPRPKDCPRP | -0.0418 |
| RRIRMRPPRLPRPRPRPICPPRP | -0.123 |
| RRIRTRPPRLPRPRPRPRNVPRP | -0.128 |
| RRIRIRPPRLPRPRPRPKRGPRP | 0.2 |
| RRIRCRPPRLPRPRPRPRECPRP | -0.146 |
| RRIRPRPPRLPRPRPRPRLWPRP | 0.917 |
| RRIRERPPRLPRPRPRPAPPPRP | 0.422 |
| RRIRARPPRLPRPRPRPRNEPRP | 0.557 |
| RRIRPRPPRLPRPRPRPLMAPRP | 0.213 |
| RRIRKRPPRLPRPRPRPQHYPRP | -0.0715 |
| RRIRRRPPRLPRPRPRPAVSPRP | -0.136 |
| RRIRLRPPRLPRPRPRPVMVPRP | -0.0863 |
| RRIRYRPPRLPRPRPRPDLTPRP | -0.0272 |
| RRIRHRPPRLPRPRPRPISVPRP | -0.00149 |
| RRIRSRPPRLPRPRPRPANFPRP | 0.0977 |
| RRIRTRPPRLPRPRPRPWFYPRP | -0.54 |
| RRIRFRPPRLPRPRPRPISHPRP | -0.202 |
| RRIRKRPPRLPRPRPRPFCMPRP | -0.115 |
| RRIRKRPPRLPRPRPRPGKVPRP | 0.248 |
| RRIRWRPPRLPRPRPRPFMMPRP | -0.587 |
| RRIRGRPPRLPRPRPRPLRWPRP | 1.33 |

| Sequence | shrunken log2 fold change |
| --- | --- |
| RRIRHRPPRLPRPRPRPANCPRP | -0.246 |
| RRIRARPPRLPRPRPRPWGTPRP | 0.211 |
| RRIRFRPPRLPRPRPRPDHWPRP | -0.00426 |
| RRIRHRPPRLPRPRPRPVCDPRP | -0.41 |
| RRIRSRPPRLPRPRPRPVAVPRP | 0.0198 |
| RRIRARPPRLPRPRPRPIAGPRP | 0.163 |
| RRIRDRPPRLPRPRPRPKMEPRP | -0.00783 |
| RRIRIRPPRLPRPRPRPIPYPRP | -0.295 |
| RRIRKRPPRLPRPRPRPLVIPRP | -0.0927 |
| RRIRIRPPRLPRPRPRPNWMPRP | -0.341 |
| RRIRGRPPRLPRPRPRPQIDPRP | 0.565 |
| RRIRWRPPRLPRPRPRPYFIPRP | -0.647 |
| RRIRGRPPRLPRPRPRPVFPPRP | 0.36 |
| RRIRYRPPRLPRPRPRPPPFPRP | 0.328 |
| RRIRRRPPRLPRPRPRPGNNPRP | -0.365 |
| RRIRERPPRLPRPRPRPMDGPRP | 0.0211 |
| RRIRTRPPRLPRPRPRPLQFPRP | -0.497 |
| RRIRQRPPRLPRPRPRPLIYPRP | -0.457 |
| RRIRDRPPRLPRPRPRPTPPPRP | 0.49 |
| RRIRVRPPRLPRPRPRPVYCPRP | -0.482 |
| RRIRNRPPRLPRPRPRPCTVPRP | -0.8 |
| RRIRGRPPRLPRPRPRPYEDPRP | -0.017 |
| RRIRFRPPRLPRPRPRPTEGPRP | -0.289 |
| RRIRPRPPRLPRPRPRPFHVPRP | -0.428 |
| RRIRLRPPRLPRPRPRPWMEPRP | 0.00489 |

| Sequence | shrunken log2 fold change |
| --- | --- |
| RRIRKRPPRLPRPRPRPAQWPRP | 0.421 |
| RRIRFRPPRLPRPRPRPTCNPRP | -0.178 |
| RRIRHRPPRLPRPRPRPMNEPRP | -0.275 |
| RRIRIRPPRLPRPRPRPTTCPRP | -0.447 |
| RRIRPRPPRLPRPRPRPYNYPRP | -0.446 |
| RRIRARPPRLPRPRPRPLMWPRP | 0.481 |
| RRIRQRPPRLPRPRPRPPKSPRP | 0.18 |
| RRIRCRPPRLPRPRPRPTVRPRP | 0.128 |
| RRIRERPPRLPRPRPRPIWTPRP | -0.0563 |
| RRIRGRPPRLPRPRPRPQWSPRP | 0.157 |
| RRIRWRPPRLPRPRPRPFACPRP | 0.00273 |
| RRIRERPPRLPRPRPRPRKGPRP | 0.0234 |
| RRIRNRPPRLPRPRPRPEHLPRP | 0.0408 |
| RRIRCRPPRLPRPRPRPNKPPRP | 0.0511 |
| RRIRTRPPRLPRPRPRPIHQPRP | 0.0323 |
| RRIRCRPPRLPRPRPRPCFWPRP | 0.216 |
| RRIRARPPRLPRPRPRPWQYPRP | -0.123 |
| RRIRSRPPRLPRPRPRPDCLPRP | -0.11 |
| RRIRTRPPRLPRPRPRPDQTPRP | -0.0468 |
| RRIRHRPPRLPRPRPRPDKTPRP | 0.0185 |
| RRIRIRPPRLPRPRPRPERAPRP | 0.761 |
| RRIRERPPRLPRPRPRPCRNPRP | -0.269 |
| RRIRTRPPRLPRPRPRPKQHPRP | 0.119 |
| RRIRDRPPRLPRPRPRPEYSPRP | 0.0929 |
| RRIRFRPPRLPRPRPRPGHGPRP | 0.148 |
